The numbers were not newly measured in publication PMC10357296, which cites them from elsewhere.

The target of the data set is IL-18 (Homo sapiens) (UniProt Q14116).
Sequence of IL-18 (Homo sapiens) (Q14116 37-193): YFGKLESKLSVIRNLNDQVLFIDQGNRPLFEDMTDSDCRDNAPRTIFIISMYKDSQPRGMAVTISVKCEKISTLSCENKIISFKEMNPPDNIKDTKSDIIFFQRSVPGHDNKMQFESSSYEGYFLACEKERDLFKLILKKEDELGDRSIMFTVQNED

Sequence of IL-18BP (O95998 31-194): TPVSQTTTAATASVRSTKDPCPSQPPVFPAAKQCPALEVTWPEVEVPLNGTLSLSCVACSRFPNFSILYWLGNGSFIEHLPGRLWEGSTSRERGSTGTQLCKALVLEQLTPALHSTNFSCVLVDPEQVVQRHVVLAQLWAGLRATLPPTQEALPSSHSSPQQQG

One may read the Kd as the concentration at which binding is half-saturated. In the case of IL-18BP (from UniProt O95998), the Kd was less than 1 nM.
